Reference: the supplement of paper PMC7125110
± gives the standard error. Variants at the floor of the assay were thinned out.

B1: glmS ribozyme (parent)
chain: AUAAAAGCGCCAGAACUACAGAAAUGUAGUUGACGAGGAGGAGGUUUAUCGAAUUUUCGGCGGAUGCCUCCAAA

Key:
Conditions in all cases: with glucosamine-6-phosphate
[1] = variants of: B1; test: self-cleavage kobs at 640 uM GlcN6P; higher = faster cleavage; RNA array
Method in brief: (§1)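 Tiles of sequenced MiSeq chips were imaged over ~14 h at 37 °C. On them, barcoded ribozyme variants had been transcribed in situ by E. coli RNA polymerase and were tracked via a hybridised Cy3 probe while glucosamine-6-phosphate (40 μM to 10 mM) in HEPES/KCl/Mg(OAc)2 buffer flowed in. Per-tile medians, normalised to baseline and to non-cleaving reference variants, were fit to one- or two-exponential decays for kobs, and weighted Michaelis–Menten fits gave kcat and KM.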

[2] = variants of: B1; test: self-cleavage kobs at 2500 uM GlcN6P; higher = faster cleavage; RNA array
Method in brief: as §1

[3] = variants of: B1; test: self-cleavage kobs at 10000 uM GlcN6P; higher = faster cleavage; RNA array
Method in brief: as §1

| Variant | self-cleavage kobs at 640 uM GlcN6P [1] [s⁻¹] | self-cleavage kobs at 2500 uM GlcN6P [2] [s⁻¹] | self-cleavage kobs at 10000 uM GlcN6P [3] [s⁻¹] |
| --- | --- | --- | --- |
| A6C C10G G41U | < 1e-05 | < 1e-05 |  |
| G7A G13C G62U | < 1e-05 |  |  |
| A15C U56A U65G | 5.97e-05 ± 2.3e-05 | 0.000177 ± 6.3e-05 | 0.000562 ± 0.00012 |
| A6U A12G A39G G63C | < 1e-05 | < 1e-05 |  |
| A39G G62U C70U | < 1e-05 | < 1e-05 |  |
| G29A U46A | 0.000116 ± 2.5e-05 | 0.000221 ± 4.8e-05 | 0.000241 ± 3.6e-05 |
| A15C U49G G62U A64C C70U | < 1e-05 |  |  |
| A12U A15G A42U | 0.000151 ± 4.6e-05 |  |  |
| C10A G35A A42U U57G | < 1e-05 |  |  |
| A14C G29A G35A G59A | < 1e-05 | < 1e-05 |  |
| G7U G13A A15C A36U G43A C67U | < 1e-05 | < 1e-05 |  |
| G7U G38U G40U | < 1e-05 |  |  |
| A12C U31A U57A | 4.6e-05 ± 2.3e-05 | 4.93e-05 ± 1.6e-05 |  |
| U30A U54C G63A | < 1e-05 |  |  |
| A15C C58U C61A C70U | 6.5e-05 ± 2.2e-05 |  |  |
| G29U A36G A53U G62A | < 1e-05 | < 1e-05 |  |

| Variant | self-cleavage kobs at 640 uM GlcN6P [1] [s⁻¹] | self-cleavage kobs at 2500 uM GlcN6P [2] [s⁻¹] | self-cleavage kobs at 10000 uM GlcN6P [3] [s⁻¹] |
| --- | --- | --- | --- |
| G7C G9U C11G C16G U30G G43U G44U C61U | < 1e-05 | < 1e-05 | < 1e-05 |
| A12U C16U G43U | 4.04e-05 ± 1.7e-05 | 7.33e-05 ± 1.4e-05 |  |
| G32U U56A C67A | 0.000114 ± 2.4e-05 | 0.000294 ± 8.2e-05 |  |
| A52C G59A U65A | < 1e-05 | < 1e-05 |  |
| A42G A52U | 5.23e-05 ± 1.2e-05 | 0.000479 ± 9.3e-05 | 0.000467 ± 9.8e-05 |
| C16U U46C G62U | < 1e-05 |  |  |
| U30G A33G U57C | < 1e-05 | < 1e-05 | < 1e-05 |
| C11U C58A A64C | < 1e-05 |  |  |
| U49A U57C | < 1e-05 |  |  |
| C34G U45C G59U G62A G66A | < 1e-05 |  |  |
| A6G C10U A14G C34U U46G U57A | < 1e-05 |  |  |
| G41C A42C C50G | < 1e-05 |  |  |
| A33C C50U G60U | < 1e-05 |  |  |
| U30C G35A C71A | < 1e-05 |  |  |
| G59U C70G | 0.000548 ± 0.00023 |  |  |
| A14G A15C U31C G40C U54A | 4.07e-05 ± 1e-05 | 0.000142 ± 3.5e-05 | 5.3e-05 ± 1.6e-05 |
